In the nanobody polyreactivity screen of Harvey et al. (2022):

Experiment: yeast display, Sf9 membrane polyspecificity reagent, FACS + sequencing; frameworks hold sequencing errors
How it was run: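 Nanobodies came from a synthetic yeast display library in Saccharomyces cerevisiae BJ5465, induced with galactose for 36–48 hours and stained for 1 hour at 4 °C with 10% biotinylated, detergent-solubilized Sf9 membrane reagent. Cells were enriched on streptavidin microbeads and then FACS-sorted, with low and high (top ~1%) gates set on anti-HA fluorescence for expression and streptavidin fluorescence for reagent binding. Each polyreactivity label reflects the gate a clone came from. Genes were amplified by colony PCR, sequenced by MiSeq 2 × 250 and filtered by CDR length.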

Sequence | polyreactivity (PSR sort gate)
QVQLVESGGGLVQAGGSLRLSCAASGRTFGVYAMGWYRQAPGKERELVAGIRWRGGSTYYADSVKGRFTISRDNAKNTVYLQMNSLKPEDTAVYYWAARVQFPYPDYAWITVLYDYWGQCTQVTVSS | low polyreactivity
QVHLVESGGGLVQAGGSLRLSCAASASTFQSNAMGWYRQAPGKERELVATITQSGATTYYADSVKGRFTISRDYAKNTVYLQMNSLKPEDTAVYYCNVDTFQKRWFWLDLDGGYWGQGTQVTVSS | low polyreactivity
QVQLVESGGGLVQAGGSLRLSCAASGRIFVENAMGWYRQAPRKERELVAAITSRGGSTYYADSVKGRFTISRDNAKNTVYLQMNSLKPEDTAVYYCNAGKYSRFLYDHNYWGQGTQVTVSS | high polyreactivity
QVQLVESGGGLVQAGGSLRLSCAASGRIFNSYAMGWYRQAPGKERELVAAITRGGSTNYADSVKGRFTISRDNAKNTVYLHMNSLKPEDTAVYYCAAVTLFHYRYDYWGQGTQVTVSS | low polyreactivity
QVQLVESGGGLVQAGGSLRLSCAASGRIFVRNAMGWYRQAPGKERELVAAISRSGGSTYYADSVKGRFTISRDNAKNTVYLQMNSLKPEDTAVYYCNKGFNYGGWFKKYGYWGQGTQVTVSS | high polyreactivity
QVQLVESGGGLVQAGGSLRLSCAASGSTIPSYAMGWYRQAPGKERELVASITYSDGTTRYADSVKGRFTISRDNAMNPVYFQMNSLKPEDSAVYYCNAVYYREGMDYWGQGTQVTVSS | low polyreactivity
QVQLVESGGGLVQAGASLRLSCAASGRIFARYAMGWYRQAPGKERELVASITRSGGSTYYADSVKGRYTISRDNAKNTVYLQMNSLKPEDTAVYYCAARYGRVRDVIPYDYWGQGTQVTVSS | high polyreactivity
QVQLQESGGGLVQAGGSLRLSCAASGYISSWYPMGWYRQAPGKEREFVATLAPGATTYYADSVKGRFTISRDYAKNTVYLQMIRLKPEDTAVYYFAAGPENNDFYSFWGQGSQVTVSS | low polyreactivity
QVQLVESGGGLVQAGRSLRLICAASGSIFRKYAMCWYRQAPVKESELVAAINYSGGNTYYADSVKGRFTISRDNSKNTVYLQMNSLKPEDTAVYFCAADSVRHYWWAYYYWGQVTQVTVSS | low polyreactivity
QVQLVESGGGLVQAGGSLRLSCAASGRIRGNVMGWYRQAPGKERELVAAISKSGGSTYYADSVKGRFTISRDNAKNTVYLQMNSLKPEDTAVYYCAAAYGQYTSYYRFGSWGQGTQVTVSS | high polyreactivity
QVQLEESGGGLVQAGGSLRLTCAASGFIFDDNAMGWYRQAPGKERELVAAISQGAGRTYYADSVKGRFTISRDNAKNTVYLQMNSLKPEDTAVYYCNSGRPKYWYGSKYDYWGQGTQVTVSS | low polyreactivity
QVQLEESGGGLVQAGGRLRLSCAASGRTFSTYAMGWYRQATGKERELVAAITRRGGSTSYADSVKGRFTISRDNANNTVYLQMNSLNPEDTAVYYCARENPGDSYYDYWGQGTQVTVSS | low polyreactivity
QVQLVESGGGLVQAGCSLRLSWAASGRTFFSNAMGWYRQAPGKERELVAAISNGDNTYYADSVKGRFTISRDNAKNTVYLQMNSLKPEDTAVYYCAKDYRWVWRKYGYWGQGTQVTVSS | low polyreactivity
QVQLVESGGGLVQAGGSLRLSCAASGSIFYNYGMGWYRQAPGKERELVAAIRASGDSTYYADSVKGRFTISRDNAKNTVYLQMNSLKPEDTAVYYCAARPNQSYYGLYFYWGQGTQVTVSS | low polyreactivity
QVQLVESGGGLVQAGGSLRLSCAASGFILRYNAMGWYRQAPGKEREFVAAITRGATTTYADSVKGRFTISRDNAKNTVYLQMNRLKPEDTAVYYCAKRYHGYISQGQLWERIYDYWGQGTQVTVSS | low polyreactivity
QVQLVESGGGLVQAGGRLRLSCAASGSTFGFNAMGWSREAPGKERELVAASNDSGGDTYYADSVKGRFTSSRDNAKNTVYLQMNSLKPEDTAVYYCAADEPSSVYGILVELEYWGQGTQVTVST | high polyreactivity
QVQLVESGGGLVQAGGSLRLSCAASGITFQTYAMGWYRQAPGKERELVAAIRWGGGTTYYADSVKGRFTISRDNAKNTVYLQMNSLKPEDTAVYYCAARTYYRRGGRVDYWGQGTQVTVSS | high polyreactivity
QVQLVESGGGLVQAGGSLRLSWAASGSIFVHNTMGWYRQAPGKERELVAAITRSVGRTYFADSVKGRFTISRDNAKNTVYLQMTSLQPADTAVYYCAKPASKGYYWGQGTQVTVSS | high polyreactivity
QVQLVESGGGIVQAGGSLRLSCAASGRTYYYYAMGWYRQAPGKETELVASISWSGGSTYYADSVKGRFTISRDNAKNTVYLQMNSLKPEDTAVYYCNAQYHTYRWLYAVYLSGDYWGQGTQVTVSS | low polyreactivity
QVQLVESGGGLVQAGGSLRLSCAASGRIFRFYAMGWYRPAPGKERELVAAISWNGGRTYYAVSVKGRFTISRDNAKNTVYLQMNSLKPEVTAVYYCATEFYYHWYSPFDYWGQGTQVTVSS | high polyreactivity
QVQLVESGGGLVQAGGSLRLSCAASGRIFYYNTMGWYRQSPGKERELVAAISSTASTTYADSVKGRFTISRENAKNTVYLKMNILKPEDTAVYYCAAAYSVRGRTYDSWGQGTQVTVSS | high polyreactivity
QVQLVESGGGLVQAGGSLRLSCAASGSIFEANDMGWYRQAPGKERELVAAIDANTGSTYYADSVKGRFTISRDNAKNTVYLQMNSLKPEDTAVYYCNAQVYLHTAYDYWGQGTQVTVSS | low polyreactivity
QVQLVESGGGLVQAGGSLRLTCAASGFTFFTYTMGWYRQPPGKERELVAAISRDGARTNYADSVKGRFTISRDNAKNTVYLQMNSLKPEDTAVYYCAAPTSHLYTEKYDYWGQGTQVTVSS | high polyreactivity
QFQLVESGGGIVQAGGSLRIAVRPPDLPSTLNHLGWSRQAPGKERSVVAAITRGGSTNYADSVKGRFTISRDNAKNTVYLQMNSLKQEDTAVYYCAAPYAGWRDGGDYWGQGTQVTVSS | low polyreactivity
QVQLVESGGGLVQAGGSLRLSCAASGRIFAEYAMGWYIQATGKERELVASISRRGGSTYYADSVKGRFTISRDNAKNTVYLQMNSLKPEDTAVYYCAAVWAYYHTRYSTWGYDYWGQGTQVTVSS | high polyreactivity
QVQLVESGGGLVQAGGSLRLSCAASGIIFKRYVMGWYRQAPGKDRQLVAGISWSGVSTFYADSVKGRFTISRDNAKNTVYLQMNSLKPEDTAVYYCAADRARYYYQAYGAYGYWGQGTQVTVSS | high polyreactivity
QVQLVESGGGLVQAGGSLPLSCAASGSNLRRYDMGLYRQAPGKERELVAAISSSGGSTYYADSVKGRFTISRDNAKNTVYLQMNSLKPEDTAVYYCAADIYDDDRSEYTEYDYWGQGTHVTVSS | low polyreactivity
QVQLVESGGGLVQAGGSLSLSCAASGSIFPGNAMGWYRQAPGKERELVAVIDFSGASTYYADSVKGRFTISRDNAKNTVYLQMNSLKPEDTADYWGQGTQVTVSS | low polyreactivity
QVQLVESGGGLVQAGGSLRLSCAASGSTFAYNAMGWYRQAPGKERELVAAISSSGGSTSYADSVKARFTIARDNAKNTVNLQMNSLKPEDPAVYYCAADSYPAYLGFVGFDYWGQGTQVTVSS | low polyreactivity
QVQLVESWGGLVQAGGSLRLSCAASGNTFIEYAMGWYRQAPGKERELVAAINWNGGSTYYADSVKGRFTISRDNAKNTVYFQMNSLTPEDTAVYYCAADTFRLYGALAEYDYWGQGTQVTVSS | low polyreactivity
